Values joined by “and” are separate entries in the source; they are usually repeats but may differ in a detail not shown here. Equal values may be shown once. Blank lines part the entries; values can stand above or below the binder they belong to.
Key:
[1] = molecular target: mCherry-tagged yeast VPS34-CII (ScVPS34-CII), wild type (S. cerevisiae, UniProt P22543 1-875; P22219 1-1454; Q02948 1-557; Q05919 1-439)
[2] = molecular target: T1, mCherry-tagged yeast VPS34-CII (ScVPS34-CII), wild type (S. cerevisiae, UniProt P22543 1-875; P22219 1-1454; Q02948 1-557; Q05919 1-439); test: confocal microscopy bead-based binding assay; RFP-trap beads coated with mCherry-tagged yeast VPS34-CII; Vps21 Q66L-EGFP added at increasing concentrations; conditions: both partners purified
T1 construct: S. cerevisiae Vps34; S. cerevisiae Vps15; S. cerevisiae Vps30, named as a common subunit of the yeast complexes; S. cerevisiae Vps38, named as the unique subunit of yeast complex II; also called WT ScVPS34-CII; yeast complex II; source: S. cerevisiae YOY193, galactose-induced; purified (IgG beads, TEV cleavage, Superdex 200); copies: + + +

[3] = molecular target: T2, mCherry-tagged human VPS34 complex II (VPS34-CII), wild type (human, UniProt Q8NEB9 1-887; Q99570 1-1358; Q14457 1-450; Q9P2Y5 1-699); test: confocal microscopy bead-based binding assay; RFP-trap agarose beads coated with 2 µM mCherry-tagged VPS34 complex (or mCherry alone); AF488-labelled RAB protein added at varying concentrations; 20 mM HEPES pH 8.0, 100 mM NaCl, 0.5 mM TCEP; 30 min on ice; AF488 normalised by mCherry intensity; fit 'One site - specific binding'; conditions: both partners purified
T2 construct: human VPS34 (class III PI3K), full length, untagged; human VPS15, full length, with C-terminal 3xTEV-ZZ removed by TEV; human BECLIN1, full length; human UVRAG, full length, untagged; Held on RFP-trap beads by the mCherry on BECLIN1; also called mCherry-VPS34-CII; WT VPS34-CII; source: Expi293 cells, transfected; purified (IgG beads, TEV cleavage, S200 gel filtration); not shown: ZZ (protein A), …

[4] = molecular target: T3, mCherry-tagged human VPS34-CII with VPS15 579-SHMIT-583>579-DDMIE-583 (human, UniProt Q8NEB9 1-887; Q99570 1-1358; Q14457 1-450; Q9P2Y5 1-699, S579D | H580D | T583E); test: as above; conditions: both partners purified
T3 construct: human VPS34, wild type; human VPS15, full length, S579D H580D T583E, with C-terminal 3xTEV-ZZ removed by TEV; human BECLIN1, full length; human UVRAG, full length, untagged; also called VPS34-CII VPS15 mutant; VPS15 mut; source: Expi293 cells, transfected; purified (IgG beads, TEV cleavage, S200 gel filtration); not shown: ZZ (protein A), C-terminal, cleaved; mCherry, N-terminal, kept; copies: + …

[5] = molecular target: T4, mCherry-tagged human VPS34-CII with VPS34 199-REIE-202>199-AAAA-202 (human, UniProt Q8NEB9 1-887; Q99570 1-1358; Q14457 1-450; Q9P2Y5 1-699, 199-REIE-202>199-AAAA-202); test: as above; conditions: both partners purified
T4 construct: human VPS34, full length, untagged, REIE to AAAA in C2 HH helix 2; human VPS15, full length, with C-terminal 3xTEV-ZZ removed by TEV; human BECLIN1, full length; human UVRAG, full length, untagged; also called VPS34-CII REIE >AAAA; source: Expi293 cells, transfected; purified (IgG beads, TEV cleavage, S200 gel filtration); not shown: ZZ (protein A), C-terminal, cleaved; mCherry, N-terminal, kept; …

[6] = molecular target: T5, mCherry-tagged human VPS34-CII with VPS34 199-REIE-202>199-ERIR-202 (human, UniProt Q8NEB9 1-887; Q99570 1-1358; Q14457 1-450; Q9P2Y5 1-699, R199E | E200R | E202R); test: as above; conditions: both partners purified
T5 construct: human VPS34, full length, untagged, R199E E200R E202R; human VPS15, full length, with C-terminal 3xTEV-ZZ removed by TEV; human BECLIN1, full length; human UVRAG, full length, untagged; also called VPS34-CII REIE >ERIR; reverse charge mutant; source: Expi293 cells, transfected; purified (IgG beads, TEV cleavage, S200 gel filtration); not shown: ZZ (protein A), C-terminal, cleaved; mCherry, …

[7] = molecular target: mCherry-tagged human VPS34-CII with VPS34 199-REIE-202>199-AAAA-202 (human, UniProt Q8NEB9 1-887; Q99570 1-1358; Q14457 1-450; Q9P2Y5 1-699, 199-REIE-202>199-AAAA-202)
[8] = molecular target: human VPS34-CII with VPS34 199-REIE-202>199-ERIR-202, untagged (human, UniProt Q8NEB9 1-887; Q99570 1-1358; Q14457 1-450; Q9P2Y5 1-699, R199E | E200R | E202R); test: cell-based or functional assay
[9] = molecular target: T3, mCherry-tagged human VPS34-CII with …; test: cell-based or functional assay
[10] = molecular target: T6, mCherry-tagged human VPS34 complex II with VPS34 199-REIE-202>AAAA (human, UniProt Q8NEB9 1-887; Q99570 1-1358; Q14457 1-450; Q9P2Y5 1-699, 199-REIE-202>199-AAAA-202); test: confocal microscopy bead-based binding assay; mCherry-tagged VPS34 complex (2 µM) held on RFP-trap agarose beads, AF488-labelled RAB5A added at varying concentrations; 20 mM HEPES pH 8.0, 100 mM NaCl, 0.5 mM TCEP; 30 min on ice; AF488 intensity normalised by mCherry intensity; GraphPad Prism fit 'One site - specific binding'; fit of the representative experiment; conditions: both partners purified
T6 construct: VPS34 (PIK3C3), human, full length, untagged, 199-REIE-202 changed to AAAA; VPS15, human, full length; BECLIN1, human, full length; UVRAG, human, full length, untagged; also called VPS34-CII REIE >AAAA; CII-AAAA; source: Expi293 cells, transfected, purified (IgG beads, TEV cleavage, gel filtration); not shown: ZZ, C-terminal, cleaved; mCherry, N-terminal, kept; copies: + + +

[11] = molecular target: T7, mCherry-tagged human VPS34 complex II with VPS15 579-SHMIT-583>DDMIE (human, UniProt Q8NEB9 1-887; Q99570 1-1358; Q14457 1-450; Q9P2Y5 1-699, S579D | H580D | T583E); test: as above; conditions: both partners purified
T7 construct: VPS34 (PIK3C3), human, wild type; BECLIN1, human, full length; UVRAG, human, full length, untagged; also called VPS34-CII VPS15 mutant; CII-DDMIE; source: Expi293 cells, transfected, purified (IgG beads, TEV cleavage, gel filtration); not shown: ZZ, C-terminal, cleaved; mCherry, N-terminal, kept; copies: + + +

[12] = molecular target: T8, mCherry-tagged human VPS34 complex II, wild type (VPS34, VPS15, mCherry-BECLIN1, UVRAG) (human, UniProt Q8NEB9 1-887; Q99570 1-1358; Q14457 1-450; Q9P2Y5 1-699); test: as above; conditions: both partners purified
T8 construct: VPS34 (PIK3C3), human, full length, untagged; VPS15, human, full length; BECLIN1, human, full length; UVRAG, human, full length, untagged; Held on RFP-trap beads by the mCherry on BECLIN1; also called VPS34-CII; WT VPS34-CII; source: Expi293 cells, transfected, purified (IgG beads, TEV cleavage, gel filtration); not shown: ZZ, C-terminal, cleaved; mCherry, N-terminal, kept; copies: + + +

[13] = molecular target: T9, mCherry-tagged human VPS34 complex II with VPS34 199-REIE-202>ERIR (human, UniProt Q8NEB9 1-887; Q99570 1-1358; Q14457 1-450; Q9P2Y5 1-699, R199E | E200R | E202R); test: as above; conditions: both partners purified
T9 construct: VPS34 (PIK3C3), human, full length, untagged, R199E E200R E202R (199-REIE-202 to ERIR); VPS15, human, full length; BECLIN1, human, full length; UVRAG, human, full length, untagged; also called VPS34-CII REIE >ERIR; CII-ERIR; source: Expi293 cells, transfected, purified (IgG beads, TEV cleavage, gel filtration); not shown: ZZ, C-terminal, cleaved; mCherry, N-terminal, kept; copies: + + +

T6 sequence (Q8NEB9 other isoform, or with tags, fused parts or gaps 199-REIE-202>199-AAAA-202 | 199-REIE-202>199-AAAA-202, chain 1 of 4): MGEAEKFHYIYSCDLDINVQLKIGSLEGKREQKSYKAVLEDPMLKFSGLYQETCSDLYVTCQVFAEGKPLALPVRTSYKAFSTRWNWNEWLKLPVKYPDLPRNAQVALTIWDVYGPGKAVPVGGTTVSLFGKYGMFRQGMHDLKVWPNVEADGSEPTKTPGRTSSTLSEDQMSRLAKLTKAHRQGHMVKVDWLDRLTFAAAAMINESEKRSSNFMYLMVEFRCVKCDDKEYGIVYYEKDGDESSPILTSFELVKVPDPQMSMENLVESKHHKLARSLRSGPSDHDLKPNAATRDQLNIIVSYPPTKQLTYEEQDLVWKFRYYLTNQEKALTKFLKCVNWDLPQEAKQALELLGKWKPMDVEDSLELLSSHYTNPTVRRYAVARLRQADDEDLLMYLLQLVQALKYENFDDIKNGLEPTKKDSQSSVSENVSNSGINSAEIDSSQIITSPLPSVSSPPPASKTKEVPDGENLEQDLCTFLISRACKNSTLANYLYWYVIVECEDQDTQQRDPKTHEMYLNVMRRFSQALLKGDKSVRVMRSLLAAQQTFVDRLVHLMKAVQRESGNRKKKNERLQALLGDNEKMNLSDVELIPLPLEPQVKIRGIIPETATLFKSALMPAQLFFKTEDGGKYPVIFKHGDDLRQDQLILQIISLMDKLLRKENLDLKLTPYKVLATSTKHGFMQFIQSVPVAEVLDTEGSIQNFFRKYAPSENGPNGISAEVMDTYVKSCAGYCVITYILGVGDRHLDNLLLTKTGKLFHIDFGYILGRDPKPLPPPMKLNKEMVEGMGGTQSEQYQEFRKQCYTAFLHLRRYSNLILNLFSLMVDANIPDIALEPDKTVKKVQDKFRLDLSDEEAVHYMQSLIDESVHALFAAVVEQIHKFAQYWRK
T6 sequence (Q99570 whole entry, change not shown, chain 2 of 4): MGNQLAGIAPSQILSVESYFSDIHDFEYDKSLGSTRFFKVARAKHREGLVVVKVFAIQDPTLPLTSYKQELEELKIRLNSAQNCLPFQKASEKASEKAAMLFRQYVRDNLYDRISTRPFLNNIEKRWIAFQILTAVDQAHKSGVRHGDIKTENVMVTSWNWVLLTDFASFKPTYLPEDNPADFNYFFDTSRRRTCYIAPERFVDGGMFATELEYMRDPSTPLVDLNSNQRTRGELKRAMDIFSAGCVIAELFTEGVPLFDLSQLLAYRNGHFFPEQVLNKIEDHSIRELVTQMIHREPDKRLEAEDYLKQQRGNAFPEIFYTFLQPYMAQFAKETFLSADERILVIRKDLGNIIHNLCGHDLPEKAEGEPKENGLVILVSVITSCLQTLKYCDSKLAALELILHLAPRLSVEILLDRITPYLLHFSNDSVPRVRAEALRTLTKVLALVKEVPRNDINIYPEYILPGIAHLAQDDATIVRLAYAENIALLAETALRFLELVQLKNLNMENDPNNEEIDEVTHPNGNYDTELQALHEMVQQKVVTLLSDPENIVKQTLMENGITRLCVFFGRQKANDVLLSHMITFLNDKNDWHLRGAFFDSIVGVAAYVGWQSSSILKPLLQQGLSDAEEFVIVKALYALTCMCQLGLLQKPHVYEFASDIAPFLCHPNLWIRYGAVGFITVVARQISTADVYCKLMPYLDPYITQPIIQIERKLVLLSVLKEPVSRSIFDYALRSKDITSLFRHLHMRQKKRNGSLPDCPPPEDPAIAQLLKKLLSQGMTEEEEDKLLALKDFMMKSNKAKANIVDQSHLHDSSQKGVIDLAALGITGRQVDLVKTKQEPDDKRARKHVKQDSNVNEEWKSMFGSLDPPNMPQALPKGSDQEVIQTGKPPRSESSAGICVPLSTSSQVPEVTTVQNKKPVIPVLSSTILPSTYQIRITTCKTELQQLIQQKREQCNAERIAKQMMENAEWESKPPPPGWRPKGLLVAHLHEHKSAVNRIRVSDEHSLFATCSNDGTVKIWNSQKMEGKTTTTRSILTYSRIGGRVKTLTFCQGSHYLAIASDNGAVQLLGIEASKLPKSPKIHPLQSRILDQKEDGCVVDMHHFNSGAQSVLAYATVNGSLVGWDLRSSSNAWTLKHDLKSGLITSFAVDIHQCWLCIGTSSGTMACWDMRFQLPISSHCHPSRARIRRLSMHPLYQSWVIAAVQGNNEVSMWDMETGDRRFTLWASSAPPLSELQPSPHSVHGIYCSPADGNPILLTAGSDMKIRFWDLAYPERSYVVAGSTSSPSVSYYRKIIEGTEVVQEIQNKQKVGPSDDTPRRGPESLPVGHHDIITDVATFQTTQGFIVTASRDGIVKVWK
T6 sequence (Q14457 whole entry, change not shown, chain 3 of 4): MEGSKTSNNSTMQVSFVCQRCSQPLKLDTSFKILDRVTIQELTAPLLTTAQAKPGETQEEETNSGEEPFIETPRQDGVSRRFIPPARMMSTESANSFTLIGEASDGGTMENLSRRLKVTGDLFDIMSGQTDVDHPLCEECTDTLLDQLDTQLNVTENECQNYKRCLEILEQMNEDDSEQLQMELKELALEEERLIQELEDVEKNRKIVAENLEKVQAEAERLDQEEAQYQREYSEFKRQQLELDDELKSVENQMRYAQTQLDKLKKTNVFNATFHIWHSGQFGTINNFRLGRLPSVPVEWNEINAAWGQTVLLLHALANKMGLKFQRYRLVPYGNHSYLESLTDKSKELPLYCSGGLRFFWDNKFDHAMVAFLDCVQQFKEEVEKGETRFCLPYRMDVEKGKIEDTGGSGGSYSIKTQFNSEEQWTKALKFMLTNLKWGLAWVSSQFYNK
T6 sequence (Q9P2Y5 whole entry, change not shown, chain 4 of 4): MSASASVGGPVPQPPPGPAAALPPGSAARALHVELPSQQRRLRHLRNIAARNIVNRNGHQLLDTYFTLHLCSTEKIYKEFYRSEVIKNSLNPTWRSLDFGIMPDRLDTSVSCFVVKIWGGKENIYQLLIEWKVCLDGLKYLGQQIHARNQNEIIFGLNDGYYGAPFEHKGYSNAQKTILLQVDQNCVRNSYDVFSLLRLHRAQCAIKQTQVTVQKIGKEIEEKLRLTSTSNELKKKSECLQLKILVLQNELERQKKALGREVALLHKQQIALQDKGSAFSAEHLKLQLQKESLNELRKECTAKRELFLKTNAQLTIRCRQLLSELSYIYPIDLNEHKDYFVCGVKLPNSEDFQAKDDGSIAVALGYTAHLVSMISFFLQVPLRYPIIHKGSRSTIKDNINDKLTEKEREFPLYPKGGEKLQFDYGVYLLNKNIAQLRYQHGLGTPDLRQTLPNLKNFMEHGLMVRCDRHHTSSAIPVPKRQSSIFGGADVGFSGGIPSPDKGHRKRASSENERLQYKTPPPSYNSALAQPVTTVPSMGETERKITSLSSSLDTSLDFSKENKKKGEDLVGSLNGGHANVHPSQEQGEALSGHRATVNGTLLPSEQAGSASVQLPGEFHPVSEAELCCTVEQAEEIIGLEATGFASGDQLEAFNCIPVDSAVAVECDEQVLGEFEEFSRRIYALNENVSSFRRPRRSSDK

B2: AF488-labelled human RAB5A Q79L C19S C63S, 1-212 (natural protein, UniProt P20339 1-212, looked up)
chain: MASRGATRPNGPNTGNKISQFKLVLLGESAVGKSSLVLRFVKGQFHEFQESTIGAAFLTQTVSLDDTTVKFEIWDTAGLERYHSLAPMYYRGAQAAIVVYDITNEESFARAKNWVKELQRQASPNIVIALSGNKADLANKRAVDFQEAQSYADDNSLLFMETSAKTSMNVNEIFMAIAKKLPKNEPQNPGANSARGRGVDLTEPTQPTRNQC
modifications: AlexaFluor 488 C5 maleimide label (43% labelling efficiency)
notes: human RAB5A residues 1-212, Q79L C19S C63S; The methods say that RAB5A was loaded with GTP or GDP; also called RAB5A-AF488; RAB5-AF488
Kd [3]: 7.4 µM
Kd [4]: 6 µM
fold tighter binding than the WT complex [5]: ~3 fold
Kd [6]: 27 µM
Kd [7]: 2.6 µM

B4: HsRAB5A Q79L C19S,C63S, 1-212, AF488-labelled (natural protein, human, UniProt P20339 1-212, looked up)
chain: B2 chain
modifications: AlexaFluor 488 C5 maleimide label (43% labelling efficiency)
notes: RAB5A, human, residues 1-212, with Q79L, C19S and C63S; Loaded with GTP or GDP before gel filtration; also called RAB5A-AF488; AF488-RAB5A; source: E. coli OverExpress C41(DE3), purified (HisTrap, ULP1 cleavage, gel filtration)
Kd [10]: 3.21 µM and 4.24 µM
Kd [11]: 6.04 µM
Kd [12]: 6.27 µM
Kd [13]: 22.1 µM

Continued, values first:

Kd [1]: 6 µM
binding result [2]: binds
B1: S. cerevisiae Vps21 Q66L, 1-207, EGFP fusion (natural protein, UniProt P36017 1-207, looked up)
chain: MNTSVTSIKLVLLGEAAVGKSSIVLRFVSNDFAENKEPTIGAAFLTQRVTINEHTVKFEIWDTAGLERFASLAPMYYRNAQAALVVYDVTKPQSFIKARHWVKELHEQASKDIIIALVGNKIDMLQEGGERKVAREEGEKLAEEKGLLFFETSAKTGENVNDVFLGIGEKIPLKTAEEQNSASNERESNNQRVDLNAANDGTSANSA
notes: S. cerevisiae Vps21 residues 1-207, Q66L (GTP-locked); Backbone pOPTH; also called Vps21 Q66L-EGFP; yeast RAB5 orthologue; source: E. coli OverExpress C41(DE3), purified (Ni-NTA, Q column, S75 gel filtration), GTP-loaded; not shown: EGFP, C-terminal, kept

GUV-based kinase assay: activation of VPS34-CII by membrane-tethered RAB5A (initial rates, AF647-PX signal) [8]: 2 fold
GUV-based kinase assay: activation of VPS34-CII by membrane-tethered RAB5A (initial rates, AF647-PX signal) [9]: ~2 fold
B3: human RAB5A-GTP 1-212 (C19S, C63S, Q79L), unlabelled (natural protein, UniProt P20339 1-212, looked up)
chain: B2 chain
